Substrate in this data set: CC[C@H](C)[C@H](NC(=O)[C@H](CCC(=O)O)NC(=O)CN)C(=O)N[C@H](C(=O)NCC(=O)NCC(=O)N[C@H](C(=O)N[C@@H](CCC(=O)O)C(=O)N[C@@H](CS)C(=O)N[C@@H](CCCCN)C(=O)N1CCC[C@H]1C(=O)N[C@@H](Cc1c[nH]cn1)C(=O)N[C@@H](CO)C(=O)N[C@@H](CCCNC(=N)N)C(=O)N1CCC[C@H]1C(=O)N[C@@H](Cc1ccc(O)cc1)C(=O)N[C@@H](CCSC)C(=O)N[C@@H](C)C(=O)N[C@@H](Cc1ccc(O)cc1)C(=O)N[C@@H](CC(C)C)C(=O)O)[C@@H](C)O)[C@@H](C)CC
Put plainly: Initial velocity analysis of DPPI with the 20-mer substrate, mass spectrometry. In kind it is biochemical, human. Conditions: other: 20-mer as DPPI substrate, about 2 nM DPPI, pH 7.0, about 27° C. As to the method:
FIG. 1. Initial velocity analysis for DPP1 kinetic constant in reaction with a 20-mer substrate (A) and a dipeptide substrate (B). (A) About 2 nM of DPPI was used in the reaction with the 20-mer substrate of […] (SEQ ID NO:1) and the reaction was monitored using a mass spectrometry system. (B) About 0.4 nM of DPP1 was used in the reaction with the dipeptide substrate of GR-α-methylcoumarin and the reaction was monitored using a rate-based format monitoring fluorescence at EM=460 nm and EX=380 nm. Initial rates are taken from kinetic data where less than 7% substrate turnover was achieved.
Once the rate of the substrate turnover under the initial velocity condition, the kinetic constants for DPPI and the peptide substrate are calculated using the following formula (I): Y=VMAX((X+Et+KM)−((((Et+X+KM)^2)−(4XEt))^0.5))/(2Et) wherein • Y is concentration of substrate turnover • X is substrate concentration • Et is DPPI concentration • KM is substrate concentration at ½ VMAX • VMAX is substrate turnover at substrate saturation
About 2 nM of DPPI was incubated with about 0.5, 1, 2, 4, 8, 16, 32, 64, 90, 128, 150 μM of the 20-mer substrate in the reaction buffer of 50 mM HEPES (pH 7.0), 100 mM NaCl, 0.005% Tween-20, and 2 mM of DTT or GSH. […]

B1: dipeptidyl peptidase I (DPPI) (Homo sapiens) (protein)
chain 1: not shown
chain 2: LPTSWDWRNVHGINFVSPVRNQASCGSCYSFASMGMLEARIRILTNNSQTPILSPQEVVSCSQYAQGCEGGFPYLIAGKYAQDFGLVEEACFPYTGTDSPCKMKEDCFRYYSSEYHYVGGFYGGCNEALMKLELVHHGPMAVAFEVYDDFLHYKKGIYHHTGLR
chain 3: not shown
notes: made in house; host or cells: Hi5 insect cells (baculovirus)
With B1, the Km turned out to be 62 µM.

These data come from US8313920B2, “High-throughput assay for evaluating dipeptidyl peptidase I activity” (Janssen Research & Development, LLC, priority 2008, dated 2012).
